Experimental data as given in article PMC12246617, “Cryo-EM structures reveal the PP2A–B55α and Eya3 interaction that can be disrupted by a peptide inhibitor” (The Journal of Biological Chemistry, 2025).

How the values were obtained:
[1] = tested on: triple-negative breast cancer (TNBC) tumor; settings: PP2A–B55α binding mutant; cited from earlier work
Source text: (§1) We have shown that Eya proteins directly interact with the PP2A–B55α but not B56 subunit. […] Moreover, all Eya family members can interact with PP2A–B55α through analogous disordered regions in their NTDs ([27], [46]).

Myc = settings: PP2A–B55α binding mutant; cited from earlier work
Source text: as §1

B55α (His-B55) = experiment: Microscale thermophoresis (MST) binding of Eya3 to labeled His-B55; design: species or system human
Source text: We expressed and purified Eya3 protein from Escherichia coli and the His-B55α subunit from insect cells (Fig. S1). In the remainder of the article, we will use B55 to represent B55α for simplicity and PP2A–B55 to represent the holoenzyme containing the A, B55, and C subunits. We labeled His-B55 with the RED–Tris–NTA dye and carried out microscale thermophoresis (MST) experiments with increasing concentrations of Eya3.
The modeled Eya3 peptide (residues 65–86) interacts mostly with residues on blades 3 and 4 of the β-propeller on the B55 surface (including residues on the β2D and β3A loop, β3B and β3C loop, and β3D and β4A loop) and with residues on the α1 and α2 helix positioned above blade 5, as well as the α2 and β6A loop (Fig. 1F). In particular, residue H79^Eya3 forms pi–pi or pi–cation stacking with H179^B55 and a hydrogen bond with D197^B55 (Fig. 2A). […] Furthermore, Y77^Eya3 forms a hydrogen bond with the main chain carbonyl of L225^B55, and K75^Eya3 forms another hydrogen bond with Y337^B55 (Fig. 2, B and C). […] We expressed and purified Eya3 K75A, Y77A, and H79A mutant proteins from E. coli and carried out MST experiments with fluorescently labeled His-B55. […] While we were working on the structure of PP2A–B55 + Eya3, Padi et al. ([84]) published the cryo-EM structure of PP2A–B55 in complex with an Eya3 peptide (residues 62–108) on bioRxiv.
(§2) FLAG-hB55, FLAG-hEya3, GFP, and GFP-B55i were cloned into the pCAG vector; (GST)-mEya3 was cloned into pGEX-6p1; His-hB56γ1 was cloned into pGEX-4T1; and His-hB55 was cloned in pFASTbac, all using the NEBuilder HiFi DNA Assembly Cloning Kit (New England Biolabs). h and m represent human and mouse proteins, respectively.
GST-mEya3 and mutants were expressed in BL21 cells. Cells were lysed in lysis buffer containing 50 mM Tris (pH 7.5), 250 mM NaCl, 5% glycerol, 1 mM DTT, and protease inhibitor cocktail (PIC; Thermo Scientific). Lysis was done in ice with sonication using 4 × 45 s pulses with 2-min off periods. NaCl was brought up to 0.5 M using 5 M NaCl, and the lysate was centrifuged for 40 min at 18,000g. Supernatant was gravity-flown over glutathione resin twice. Resin was washed with 100 ml of lysis buffer. GST was cleaved with PreScission protease and eluted into lysis buffer. Eluates were pooled and concentrated with Amicon Ultra Centrifugal filters. Concentrated protein was separated on a pre-equilibrated S200 column for size-exclusion chromatography. Peaks were combined, concentrated again, aliquoted, and stored at −80 °C.
His-B55 was expressed in Hi5 cells. […]
His-B55 or His-B56γ1 labeled with […] (NanoTemper) was added to serial dilutions of mEya3 in PBS with 0.05% Tween-20. The samples were then read with a Monolith NT.115^Pico (NanoTemper) according to the manufacturer’s instructions.

B55 = settings: Eya3 mutant; cited from earlier work
Source text: The modeled Eya3 peptide (residues 65–86) interacts mostly with residues on blades 3 and 4 of the β-propeller on the B55 surface (including residues on the β2D and β3A loop, β3B and β3C loop, and β3D and β4A loop) and with residues on the α1 and α2 helix positioned above blade 5, as well as the α2 and β6A loop (Fig. 1F). In particular, residue H79^Eya3 forms pi–pi or pi–cation stacking with H179^B55 and a hydrogen bond with D197^B55 (Fig. 2A). […] Furthermore, Y77^Eya3 forms a hydrogen bon ...

PP2A–B55 = settings: malachite green assay, peptide substrate KRpTIRR; 50 mM Tris [pH 7.5], 50 mM NaCl, 5 mM MgCl2, 0.1 mM EDTA; cited from earlier work
Source text: To identify the factor that led to this discrepancy, we first repeated our as ...

[2] = tested on: Eya3 and B55 complex (FLAG-hEya3 + His-B55); experiment: Mass photometry of Eya3 and B55 complex formation and its disruption by B55i; type: binding, human; settings: no B55i, 20 mM Tris (pH 8), 250 mM NaCl, 1 mM MnCl2, 0.5 mM TCEP, molar ratio 1.5:1, diluted to 100 nM
Source text: To evaluate the effect of B55i in cells, we expressed the B55i peptide as a GFP fusion on a plasmid in 66cl4 TNBC cells.
B, MST binding affinity curve showing the interaction between mEya3 and His-B55α. C, B55i disruption of the mEya3 and His-B55α interaction on MST. […] The amount of GFP and GFP-B55i expressed was also quantified using eGFP absorbance at 488 nm and normalized to total protein in the cell lysate. The datasets in all panels represent three independent biological replicates. Error bars represent the standard deviation. Statistical data analysis was done using Fmax tests followed by two-tailed, homoscedastic t tests. ∗p < 0.05, ∗∗p < 0.01, and ∗∗∗∗p < 0.0001. MST, microscale thermophoresis; TNBC, triple-negative breast cancer. […] It is uncertain whether these count as molecular weight results or as excluded spectrum labels.
as §2
hEya3 and PP2A–B55 were combined in 20 mM Tris (pH 8), 250 mM NaCl, 1 mM MnCl2, and 0.5 mM TCEP at a molar ratio of 1.5:1. […] Immediately prior to reading, the solution was diluted to 100 nM. Samples were analyzed on the Refeyn TwoMP (Refeyn).

Myc pT58 = settings: cited from earlier work
Source text: The weak inhibition of the PP2A–B55 activity by its B55 binders may have different consequences i ...

Row | Molecule | TNBC tumor metastasis [1] | Myc stabilization (Myc) | binding between Eya3 and B55 (mutants) (B55α (His-B55); fluorescently labeled His-B55, vs Eya3 WT) | interaction between Eya3 and B55 (B55) | phosphatase activity of PP2A–B55 (PP2A–B55) | Kd (B55α (His-B55); His-B55 labeled with Red–Tris–NTA dye, serial dilutions of Eya3 (mEya3, E. coli), PBS with 0.05% Tween-20, Monolith NT.115 Pico, three independent biological replicates (stated for Fig. 1A)) [nM] | Eya3 and B55 complex formation [2] | dephosphorylation of pT58 on Myc (Myc pT58)
1 | H79A: Eya3 H79A mutant protein from E. coli (protein, UniProt Q99504 1-573, looked up, variant H79A) Protein phosphatase EYA3: MEEEQDLPEQPVKKAKMQESGEQTISQVSNPDVSDQKPETSSLASNLPMSEEIMTCTDYIPRSSNDYTSQMYSAKPYAAILSVPVSETAYPGQTQYQTLQQTQPYAVYPQATQTYGLPPFGALWPGMKPESGLIQTPSPSQHSVLTCTTGLTTSQPSPAHYSYPIQASSTNASLISTSSTIANIPAAAVASISNQDYPTYTILGQNQYQACYPSSSFGVTGQTNSDAESTTLAATTYQSEKPSVMAPAPAAQRLSSGDPSTSPSLSQTTPSKDTDDQSRKNMTSKNRGKRKADATSSQDSELERVFLWDLDETIIIFHSLLTGSYAQKYGKDPTVVIGSGLTMEEMIFEVADTHLFFNDLEECDQVHVEDVASDDNGQDLSNYSFSTDGFSGSGGSGSHGSSVGVQGGVDWMRKLAFRYRKVREIYDKHKSNVGGLLSPQRKEALQRLRAEIEVLTDSWLGTALKSLLLIQSRKNCVNVLITTTQLVPALAKVLLYGLGEIFPIENIYSATKIGKESCFERIVSRFGKKVTYVVIGDGRDEEIAAKQHNMPFWRITNHGDLVSLHQALELDFL | impeded | impeded Myc stabilization | significantly reduce the binding between Eya3 and B55 | dramatically reduce the interaction between Eya3 and B55 |  |  |  | 
2 | Eya3: Eya3 protein purified from Escherichia coli (mEya3) or HEK293 FreeStyle cells (FLAG-hEya3) (protein, left off: FLAG, end not stated, kept) MEEEQDLPEQPVKKAKMQESGEQTISQVSNPDVSDQKPETSSLASNLPMSEEIMTCTDYIPRSSNDYTSQMYSAKPYAHILSVPVSETAYPGQTQYQTLQQTQPYAVYPQATQTYGLPPFGALWPGMKPESGLIQTPSPSQHSVLTCTTGLTTSQPSPAHYSYPIQASSTNASLISTSSTIANIPAAAVASISNQDYPTYTILGQNQYQACYPSSSFGVTGQTNSDAESTTLAATTYQSEKPSVMAPAPAAQRLSSGDPSTSPSLSQTTPSKDTDDQSRKNMTSKNRGKRKADATSSQDSELERVFLWDLDETIIIFHSLLTGSYAQKYGKDPTVVIGSGLTMEEMIFEVADTHLFFNDLEECDQVHVEDVASDDNGQDLSNYSFSTDGFSGSGGSGSHGSSVGVQGGVDWMRKLAFRYRKVREIYDKHKSNVGGLLSPQRKEALQRLRAEIEVLTDSWLGTALKSLLLIQSRKNCVNVLITTTQLVPALAKVLLYGLGEIFPIENIYSATKIGKESCFERIVSRFGKKVTYVVIGDGRDEEIAAKQHNMPFWRITNHGDLVSLHQALELDFL |  |  |  |  | increases the phosphatase activity of PP2A–B55 | 1040 | Eya3 and B55 form a complex | clearly increases the dephosphorylation of pT58 on Myc
